This note sets out measurements from US20190233494A1 (Sanofi, published 2019).

The target in assay [1] is T1, RXFP1 receptor (endogenous, on OVCAR5 cells) (UniProt Q9HBX9 1-757, limits assumed).
T1 sequence (looked up): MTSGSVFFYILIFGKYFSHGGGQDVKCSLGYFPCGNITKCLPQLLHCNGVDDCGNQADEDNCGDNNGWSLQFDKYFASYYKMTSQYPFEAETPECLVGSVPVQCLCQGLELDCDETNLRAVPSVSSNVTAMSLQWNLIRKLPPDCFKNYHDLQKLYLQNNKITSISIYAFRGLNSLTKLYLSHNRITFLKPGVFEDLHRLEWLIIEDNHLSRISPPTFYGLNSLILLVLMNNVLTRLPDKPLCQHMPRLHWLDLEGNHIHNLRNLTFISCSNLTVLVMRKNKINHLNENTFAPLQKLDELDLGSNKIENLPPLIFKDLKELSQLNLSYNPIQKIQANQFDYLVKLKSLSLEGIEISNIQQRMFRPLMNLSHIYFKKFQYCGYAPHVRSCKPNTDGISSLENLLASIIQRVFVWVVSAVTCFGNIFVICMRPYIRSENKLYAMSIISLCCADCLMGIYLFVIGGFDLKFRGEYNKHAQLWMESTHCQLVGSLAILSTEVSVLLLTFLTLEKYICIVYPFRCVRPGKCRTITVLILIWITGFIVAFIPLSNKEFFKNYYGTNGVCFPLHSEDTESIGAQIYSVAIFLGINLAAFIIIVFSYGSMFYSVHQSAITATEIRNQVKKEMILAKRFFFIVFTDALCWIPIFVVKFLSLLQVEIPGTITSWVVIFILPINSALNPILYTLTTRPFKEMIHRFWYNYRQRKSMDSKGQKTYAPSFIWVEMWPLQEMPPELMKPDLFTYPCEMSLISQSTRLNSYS
The assay can be described thus: cell-based or functional assay.

The target in assay [2] is T1, RXFP1 receptor (endogenous, on OVCAR5 …). In words: cell-based or functional assay. The source holds these as a separate data set.

Starred links: 1 amine or outer side, 2 acyl side, 3 side chain; linkers in the order of their positions; H or OH if unused. Non-standard residues stand in square brackets, D forms with d. Groups on a side chain read outwards from the residue. *: point of attachment. TTDS = 4-[3-[2-[2-(3-aminopropoxy)ethoxy]ethoxy]propylamino]-4-oxo-butanoyl; γGlu = O=C(O)[C@H](CCC(=O)[*:2])N[*:1]; Palmitoyl = CCCCCCCCCCCCCCCC(=O)*; hLys = NCCCCC[C@H](N)C(=O)O; Aib = CC(C)(N)C(=O)O

As for Ac-LEGREKVRAK(Ac)I[Aib][Aib]EGK([TTDS-TTDS-TTDS-γGlu-γGlu-γGlu-Palmitoyl])STWS[hLys]RAK(Ac)-NH2 [peptide of SEQ ID NO: 57], in assay [1], the “EC50 (nM), OVCAR 5 cells (cAMP)” value was 0.44 nM and the “EMax, OVCAR 5 cells (cAMP)” value was found to be 98%.
Regarding Ac-VIKLSGRELVRAQIAISGMSTWSKKKK-NH2 [KKKK(AcB7-29 C11.23S)], in assay [2], the “EC50 (nM), cAMP assay in OVCAR 5 cells” value was found to be 206 nM and the “Emax, cAMP assay in OVCAR 5 cells” value was determined as 84%.
On to Ac-VIKLSGRELVRAQIAISGMSTWSKRSL-NH2 [AcB7-33 C11.23S], for which, in assay [2], the “EC50 (nM), cAMP assay in OVCAR 5 cells” value is 929 nM and the “Emax, cAMP assay in OVCAR 5 cells” value stood at 70%.
Turning to H-VIKLSGRELVRAQIAISGMSTWSKRSL-NH2 [B7-33 C11.23S], in assay [2], the “EC50 (nM), cAMP assay in OVCAR 5 cells” value is 1640 nM and the “Emax, cAMP assay in OVCAR 5 cells” value came out at 90%.
